As a reminder, the IC50 is the concentration that inhibits the measured activity by half. By Kd is commonly meant the constant that tells how readily two partners part at equilibrium. The EC50 (read off the curve) is the concentration needed to bring the measured effect to its halfway point.

For experiment [1], the target named is T1, human plasma derived FXIa (human, UniProt P03951 19-625). In words: cell-based or functional assay.
The target of the next experiment is human pre-kallikrein (human, UniProt P03952 20-638). As to the kind of experiment: direct ELISA, panel 'Human Pre-kallikrein': antigen coated on the plate, IgG titrated, fluorescence (RFU). As for the experimental part: (§1) For direct coating ELISAs, antigens were immobilized on 384-well Maxisorp™ microtiter plates over night at 4° C. using the concentrations as shown in Table 5. After blocking with 5% skim milk powder in PBS (80 μl/well), 20 μl/well of Fab-containing E. coli lysates or purified antibodies at various concentrations (typically 12 points of a 1:3 titration starting at 200 nM IgG or Fab, respectively) were added to plates and incubated for 1 h at room temperature. […] Fluorescence emission at 535 nm was recorded with excitation at 430 nm. Multiple wash steps with PBS+0.05% Tween20 were performed in between individual assay steps.
(In general: ELISA stands for enzyme-linked immunosorbent assay.)

A further experiment concerns the target T2, human plasma-derived FXI (human, UniProt P03951 19-625).
T2 construct: This is the zymogen, which has two chains; also called human FXI; Factor XI
As to the kind of experiment: direct ELISA, panel 'Human plasma FXI': antigen coated on the plate, IgG titrated, AP-anti-human F(ab)2 and AttoPhos fluorescence (RFU); half-maximal binding concentration of the fit, headed 'IC50' in the drawn table; unit taken from the axis 'Conc. [nM]'. As for the experimental part:
as §1

For another experiment, the target named is rabbit FXI (rabbit). In words: direct ELISA, panel 'Rabbit FXI': antigen coated on the plate, IgG titrated, AP-anti-human F(ab)2 and AttoPhos fluorescence (RFU); half-maximal binding concentration of the fit, headed 'IC50' in the drawn table; unit taken from the axis 'Conc. [nM]'. As for the experimental part: as §1
For experiment [2], the target named is T1, human plasma derived FXIa. As to the kind of experiment: direct ELISA, panel 'Human plasma FXIa': antigen coated on the plate, IgG titrated, AP-anti-human F(ab)2 and AttoPhos fluorescence (RFU); half-maximal binding concentration of the fit, headed 'IC50' in the drawn table; unit taken from the axis 'Conc. [nM]'. As for the experimental part: as §1
Another experiment addresses cynomolgus monkey FXI (cynomolgus monkey). As to the kind of experiment: direct ELISA, panel 'Cynomolgus monkey FXI': antigen coated on the plate, IgG titrated, AP-anti-human F(ab)2 and AttoPhos fluorescence (RFU); half-maximal binding concentration of the fit, headed 'IC50' in the drawn table; unit taken from the axis 'Conc. [nM]'. How it is done: as §1
Experiment [3] concerns the target T1, human plasma derived FXIa. In words: cell-based or functional assay. The source holds these as a separate data set.
The next experiment addresses human kallikrein (human, UniProt P03952 20-638). In words: direct ELISA, panel 'Human Kallikrein': antigen coated on the plate, IgG titrated, fluorescence (RFU). How it is done:
as §1

Experiment [4] deals with T1, human plasma derived FXIa. As to the kind of experiment: solution equilibrium titration (SET), ECL read-out, purified Fab at 500 pM with titrated hFXIa; ± is the 95% confidence interval of the fit. How it is done: (§2) Experiments were carried out in polypropylene microtiter plates and with PBS (GIBCO 14190, pH 7.0-7.2) containing 0.5% BSA and 0.02% Tween20 as assay buffer. Serial dilutions of unlabeled FXIa antigen were prepared, starting with a concentration at least 10 times higher than the expected KD. Wells without antigen were used to determine Bₘₐₓ values; wells containing only assay buffer were used to determine background. After addition of an appropriate amount of binder (antibody concentration similar to or below the expected KD, 60 μL final volume), the mixture was incubated over night at RT.
(§3) MSD plates were coated with 1 μg/mL human plasma derived FXIa (30 μL per well). After washing the plate with PBS containing 0.05% Tween 20, the equilibrated samples were transferred to the plates and incubated for 20 min. Following incubation, 30 μL per well of the MSD-Sulfo-tag labeled detection antibody (anti-Flag M2 (Sigma) 1:2,000) was added to the washed MSD plate and incubated for 30 min at RT on an Eppendorf shaker (700 rpm).
After washing the MSD plate and adding 30 μL/well MSD Read Buffer T with surfactant, electrochemiluminescence signals were detected using a Sector Imager 6000 (Meso Scale Discovery, Gaithersburg, Md., USA).

Experiment [5] deals with T1, human plasma derived FXIa. As to the kind of experiment: solution equilibrium titration (SET), IgG at 20 pM, 1:1 binding model. How it is done: as §2, §3
The SET method described in Example 2 was used to determine the KD for AM4 (IgG), and compared to NOV1401, the germlined version of its parental antibody NOV1090.

Experiment [6] concerns the target T1, human plasma derived FXIa. In words: method not stated in the sentence (compared with the SET KD of NOV1090 Fab); NOV1401 Fab, cited for comparison with the SET KD of NOV1090 Fab.
Experiment [7] has as its target T1, human plasma derived FXIa. As to the kind of experiment: SET screening, KD estimate from 5 data points, unpurified Fab in bacterial lysate; ± is the 95% confidence interval of the fit. The text has this: To estimate Fab KDs, bacterial lysates were screened by SET. The SET screening method (see, e.g., Della Ducata et al (2015) J Biomol Screen; 20(10):1256-67) was generally performed as described above for the SET determination method. For ranking of the matured binders by SET based on the principles described by Haenel and coworkers (Haenel et al (2005) Anal Biochem; 339(1):182-4), a constant amount of diluted BEL extract (bacterial lysate) was equilibrated over night with different concentrations of antigen.
The mixture was then transferred to MSD plates, which were previously coated with antigen (1 μg/mL human plasma FXIa), and after incubation and washing, a suitable MSD-Sulfo-tag labeled detection antibody was added (anti-Flag M2, Sigma).

The target in experiment [8] is T1, human plasma derived FXIa. In words: SET KD estimates of Fabs compared with SET KD of NOV1090 Fab.
Experiment [9] concerns the target T1, human plasma derived FXIa. In words: SET screening compared with SET KD of NOV1090 Fab.
Experiment [10] deals with T1, human plasma derived FXIa. In words: direct ELISA, panel 'Human plasma FXIa': antigen coated on the plate, IgG titrated, AP-anti-human F(ab)2 and AttoPhos fluorescence (RFU); the printed IC50 cell of this row is under recheck. How it is done:
as §1

Several values for one entry are separate records, joined by “and”; a condition that tells them apart may be missing. Equal entries are not always repeated.

Sequence of human pre-kallikrein (P03952 20-638 limits assumed): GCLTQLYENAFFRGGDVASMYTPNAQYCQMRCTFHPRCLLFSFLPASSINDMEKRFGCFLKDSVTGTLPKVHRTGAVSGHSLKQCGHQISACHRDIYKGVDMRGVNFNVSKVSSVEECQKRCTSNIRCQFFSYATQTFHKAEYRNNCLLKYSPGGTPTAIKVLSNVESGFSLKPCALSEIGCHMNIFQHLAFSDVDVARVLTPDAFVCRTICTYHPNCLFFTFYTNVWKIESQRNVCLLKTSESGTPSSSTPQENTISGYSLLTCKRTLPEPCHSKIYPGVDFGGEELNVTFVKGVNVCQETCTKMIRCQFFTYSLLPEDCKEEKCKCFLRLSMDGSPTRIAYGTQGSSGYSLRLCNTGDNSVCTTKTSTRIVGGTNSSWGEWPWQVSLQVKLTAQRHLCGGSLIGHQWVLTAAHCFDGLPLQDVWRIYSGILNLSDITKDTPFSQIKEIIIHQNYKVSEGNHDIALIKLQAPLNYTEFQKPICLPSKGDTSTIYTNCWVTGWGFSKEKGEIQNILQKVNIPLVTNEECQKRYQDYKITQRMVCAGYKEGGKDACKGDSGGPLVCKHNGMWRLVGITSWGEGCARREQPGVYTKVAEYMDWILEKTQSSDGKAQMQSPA
Sequence of human kallikrein (P03952 20-638 limits assumed): as above
Sequence of cynomolgus monkey FXI (cynomolgus monkey) (P03951 other isoform, or with tags, fused parts or gaps): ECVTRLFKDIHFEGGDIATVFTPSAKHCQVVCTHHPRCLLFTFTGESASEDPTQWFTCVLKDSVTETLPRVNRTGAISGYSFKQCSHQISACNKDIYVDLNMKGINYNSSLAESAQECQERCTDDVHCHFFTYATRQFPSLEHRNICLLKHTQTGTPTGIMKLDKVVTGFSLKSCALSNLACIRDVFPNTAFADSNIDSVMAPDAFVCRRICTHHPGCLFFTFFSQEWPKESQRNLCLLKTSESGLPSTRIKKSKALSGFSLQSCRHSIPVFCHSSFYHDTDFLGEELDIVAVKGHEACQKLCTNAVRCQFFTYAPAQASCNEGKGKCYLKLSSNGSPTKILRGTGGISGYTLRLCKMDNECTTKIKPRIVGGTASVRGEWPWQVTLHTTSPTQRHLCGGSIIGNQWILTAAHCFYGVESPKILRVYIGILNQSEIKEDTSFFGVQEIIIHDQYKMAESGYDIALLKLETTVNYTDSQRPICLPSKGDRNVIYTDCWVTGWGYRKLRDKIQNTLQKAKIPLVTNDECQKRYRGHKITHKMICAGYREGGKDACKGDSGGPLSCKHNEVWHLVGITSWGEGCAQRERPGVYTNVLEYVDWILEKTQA
T2 sequence (P03951 19-625 C226S limits assumed): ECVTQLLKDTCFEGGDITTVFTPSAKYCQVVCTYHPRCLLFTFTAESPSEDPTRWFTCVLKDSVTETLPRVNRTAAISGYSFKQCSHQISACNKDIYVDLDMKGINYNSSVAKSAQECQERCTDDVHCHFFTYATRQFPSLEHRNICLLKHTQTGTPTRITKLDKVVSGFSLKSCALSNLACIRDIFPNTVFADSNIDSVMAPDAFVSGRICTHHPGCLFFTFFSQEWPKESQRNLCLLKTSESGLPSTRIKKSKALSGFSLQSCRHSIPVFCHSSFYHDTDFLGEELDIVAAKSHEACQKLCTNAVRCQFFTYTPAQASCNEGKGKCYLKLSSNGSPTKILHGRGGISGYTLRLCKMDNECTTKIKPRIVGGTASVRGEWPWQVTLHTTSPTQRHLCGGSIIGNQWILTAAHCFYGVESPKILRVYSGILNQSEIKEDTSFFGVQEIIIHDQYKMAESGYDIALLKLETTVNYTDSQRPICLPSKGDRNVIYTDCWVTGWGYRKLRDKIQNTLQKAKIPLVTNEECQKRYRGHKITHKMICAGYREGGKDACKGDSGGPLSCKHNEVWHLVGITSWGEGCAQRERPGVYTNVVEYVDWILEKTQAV
T1 sequence (P03951 19-625 C226S limits assumed): as above

B1: AM1 (IgG) (antibody, V domains shown)
VH: QVQLLESGGGLVQPGGSLRLSCAASGFTFSTAAMSWVRQAPGKGLEWVSTIDSWGDDTDYADSVKGRFTISRDNSKNTLYLQMNSLRAEDTAVYYCARELSYLYSGYYFDYWGQGTLVTVSS
VL: DIVLTQPPSVSGAPGQRVTISCSGSSSNIGSNDVSWYQQLPGTAPKLLIYKNYNRPSGVPDRFSGSKSGTSASLAITGLQAEDEADYYCSAWDQRQFDVVFGGGTKLTVLG
On to B1, for which, in experiment [1], the “TGA IC50, fold lower compared to NOV1401” value is around 4 fold. Besides, the binding result with human pre-kallikrein and with human kallikrein was “no binding (tested: about 200 nM)” in each case. For the same molecule, the concentration for half-maximal inhibition (IC50) is 0.215 nM in the experiment with human plasma-derived FXI, 0.463 nM with rabbit FXI, 0.274 nM in experiment [2] and 0.448 nM with cynomolgus monkey FXI. Further, the “TGA IC50” value in experiment [3] came out at 6 nM. Also, the “TGA Residual Thrombin [nM] (%)” value in [3] was 180 nM and 37.5%.

B2: NOV1090 Fab (Fab, V domains shown)
VH: QVQLLESGGGLVQPGGSLRLSCAASGFTFSTAAMSWVRQAPGKGLEWVSGISGSGSSTYYADSVKGRFTISRDNSKNTLYLQMNSLRAEDTAVYYCARELSYLYSGYYFDYWGQGTLVTVSS
VL: DIVLTQPPSVSGAPGQRVTISCSGSSSNIGSNDVSWYQQLPGTAPKLLIYKNYNRPSGVPDRFSGSKSGTSASLAITGLQAEDEADYYCSAWDQRQFDVVFGGGTKLTVL
notes: Purified HuCAL Fab, at least 90% monomer; It was detected with anti-Flag M2, so it carries a Flag tag; also called anti-FXI/FXIa Fab; parental NOV1090 Fab fragment
On to B2, for which, in experiment [4], the dissociation constant Kd turned out to be 0.21 nM.

B3: NOV1401 (IgG) (antibody, V domains shown)
VH: QVQLLESGGGLVQPGGSLRLSCAASGFTFSTAAMSWVRQAPGKGLEWVSGISGSGSSTYYADSVKGRFTISRDNSKNTLYLQMNSLRAEDTAVYYCARELSYLYSGYYFDYWGQGTLVTVSS
VL: QSVLTQPPSASGTPGQRVTISCSGSSSNIGSNDVSWYQQLPGTAPKLLIYKNYNRPSGVPDRFSGSKSGTSASLAISGLQSEDEADYYCSAWDQRQFDVVFGGGTKLTVLG
notes: Germlined version of NOV1090, human IgG1/lambda with D265A and P329A in the Fc
Regarding B3, in [3], the “TGA IC50” value is 24 nM; the “TGA Residual Thrombin [nM] (%)” value was 159 nM and 34.4%. The molecule further registered a Kd in [5] of 0.00312 nM.

B4: AM2 (IgG) (antibody, V domains shown)
VH: QVQLLESGGGLVQPGGSLRLSCAASGFTFSTAAMSWVRQAPGKGLEWVSSIEYYDTDTHYADSVKGRFTISRDNSKNTLYLQMNSLRAEDTAVYYCARELSYLYSGYYFDYWGQGTLVTVSS
VL: DIVLTQPPSVSGAPGQRVTISCSGSSSNIGSNDVSWYQQLPGTAPKLLIYKNYNRPSGVPDRFSGSKSGTSASLAITGLQAEDEADYYCSAWDQRQFDVVFGGGTKLTVLG
For B4, the binding result in the experiment with human pre-kallikrein and with human kallikrein was “no binding (tested: about 200 nM)” in each case. Moreover, the half-maximal inhibitory concentration (IC50) is 0.331 nM with human plasma-derived FXI, 0.432 nM with rabbit FXI, 0.466 nM in experiment [2] and 0.399 nM with cynomolgus monkey FXI. In addition, in [3], the “TGA IC50” value is 7 nM. In [3], the “TGA Residual Thrombin [nM] (%)” value is 186 nM and 36.6%.

B5: NOV1401 Fab (Fab, V domains shown)
VH: QVQLLESGGGLVQPGGSLRLSCAASGFTFSTAAMSWVRQAPGKGLEWVSGISGSGSSTYYADSVKGRFTISRDNSKNTLYLQMNSLRAEDTAVYYCARELSYLYSGYYFDYWGQGTLVTVSS
VL: QSVLTQPPSASGTPGQRVTISCSGSSSNIGSNDVSWYQQLPGTAPKLLIYKNYNRPSGVPDRFSGSKSGTSASLAISGLQSEDEADYYCSAWDQRQFDVVFGGGTKLTVL
notes: Fab of NOV1401, the germlined version of NOV1090 with identical CDRs
B5 returned a Kd in experiment [6] of 0.305 nM.

B6: AM2 Fab (Fab, V domains shown)
VH: QVQLLESGGGLVQPGGSLRLSCAASGFTFSTAAMSWVRQAPGKGLEWVSSIEYYDTDTHYADSVKGRFTISRDNSKNTLYLQMNSLRAEDTAVYYCARELSYLYSGYYFDYWGQGTLVTVSS
VL: DIVLTQPPSVSGAPGQRVTISCSGSSSNIGSNDVSWYQQLPGTAPKLLIYKNYNRPSGVPDRFSGSKSGTSASLAITGLQAEDEADYYCSAWDQRQFDVVFGGGTKLTVL
notes: Unpurified Fab in bacterial lysate (BEL extract), used in SET screening
For the molecule B6, in [7], the Kd is 0.027 nM. In addition, the “fold increase in affinity over NOV1090 Fab” value (shortened to “fold increase in affinity”) in experiment [8] was around 10 fold. Also, in [9], the “fold lower KD than NOV1090 Fab” value was around 7 fold.

B7: AM3 Fab (Fab, V domains shown)
VH: QVQLLESGGGLVQPGGSLRLSCAASGFTFSTAAMSWVRQAPGKGLEWVSTIEYSSQETYYADSVKGRFTISRDNSKNTLYLQMNSLRAEDTAVYYCARELSYLYSGYYFDYWGQGTLVTVSS
VL: DIVLTQPPSVSGAPGQRVTISCSGSSSNIGSNDVSWYQQLPGTAPKLLIYKNYNRPSGVPDRFSGSKSGTSASLAITGLQAEDEADYYCSAWDQRQFDVVFGGGTKLTVL
notes: as for B6
Consider B7, for which, in [7], the Kd was 0.029 nM. For the same molecule, in experiment [8], the “fold increase in affinity” value is around 10 fold. For the same molecule, the “fold lower KD than NOV1090 Fab” value in [9] was around 7 fold.

B8: AM1 Fab (Fab, V domains shown)
VH: QVQLLESGGGLVQPGGSLRLSCAASGFTFSTAAMSWVRQAPGKGLEWVSTIDSWGDDTDYADSVKGRFTISRDNSKNTLYLQMNSLRAEDTAVYYCARELSYLYSGYYFDYWGQGTLVTVSS
VL: DIVLTQPPSVSGAPGQRVTISCSGSSSNIGSNDVSWYQQLPGTAPKLLIYKNYNRPSGVPDRFSGSKSGTSASLAITGLQAEDEADYYCSAWDQRQFDVVFGGGTKLTVL
notes: as for B6
As to B8, the Kd in experiment [7] was 0.032 nM. Also, the “fold increase in affinity” value in experiment [8] is around 10 fold. In experiment [9], the “fold lower KD than NOV1090 Fab” value is around 7 fold.

B9: NOV1090 (IgG) (antibody, V domains shown)
VH: QVQLLESGGGLVQPGGSLRLSCAASGFTFSTAAMSWVRQAPGKGLEWVSGISGSGSSTYYADSVKGRFTISRDNSKNTLYLQMNSLRAEDTAVYYCARELSYLYSGYYFDYWGQGTLVTVSS
VL: DIVLTQPPSVSGAPGQRVTISCSGSSSNIGSNDVSWYQQLPGTAPKLLIYKNYNRPSGVPDRFSGSKSGTSASLAITGLQAEDEADYYCSAWDQRQFDVVFGGGTKLTVLG
notes: Non-germlined version of NOV1401, human IgG1/lambda; also called parental NOV1090; parental IgG
Turning to B9, the binding result with human pre-kallikrein and with human kallikrein was “no binding (tested: about 200 nM)” throughout. In addition, the values for the IC50 with human plasma-derived FXI, with rabbit FXI and in the experiment with cynomolgus monkey FXI were 0.392 nM, 0.504 nM and 0.58 nM, respectively. The “EC50 (read off the curve)” value in [10] was around 0.6 nM.

The values are drawn from patent US20190330372A1 (Novartis, published 2019).
